Reference: US20040063184A1, “Fermentation processes and compositions” (priority 2002, published 2004)

Key:
Type in all cases: cell-based
[1] = test system: yeast; assay: Example 4: LSF ethanol fermentation with lipases, purified lipases, ferric sulfate; conditions: Candida antarctica lipase 400 LU/g DS, purified lipases 100 LU/g DS
Procedure: Example 4 was conducted on dry milled corn according to a simultaneous liquefaction5 saccharification-fermentation (LSF) protocol. The experiment was carried out on ground yellow corn using a glucoamylase and alpha amylase for fermenting ethanol with and without lipase, as described in examples 2 and 3. Fermentations were carried out at pH=5.0, 32° C. for several hours. In addition to Candida antarctica lipase and inactivated Candida antarctica lipase, feric sulfate and purified lipases from Candida cylindracea lipase and Candida antarctica lipase A, were also compared. Four times less of the purified lipase was used.

[2] = test system: yeast; assay: Example 14: LSF ethanol fermentation with and without laccase; conditions: additive with glucoamylase: 0.1 M NaCl & 0.7 GAU/g DS, NZ 525 0.5% DS & 0.9 GAU/g DS, laccase 0.2% DS & 1.0 GAU/g DS
Procedure: The addition of a laccase was tested under anaerobic fermentation conditions analogous to ethanol fermenting experiments. The experiment was conducted on dry milled yellow corn according to a simultaneous liquefaction-saccharification-fermentation (LSF) protocol. The experiment was carried out using a glucoamylase (Spirizyme plus, available from Novozymes A/S) for fermenting ethanol, with and without laccase. Fermentations were carried out at pH=5.0, 32° C. for several hour. The process was monitored with time and analyzed for CO2 weight loss, percent ethanol produced and theoretical conversion of the starch.

[3] = test system: Ethanol Red yeast; assay: Example 8: as Example 6 with protease in the fermentation medium
Procedure: This experiment was carried out using the same experimental conditions and enzyme concentrations described in Example 6, with the exception that protease (Novozyme 50006, 0.007% DS) was also added to the fermentation medium with an increased sample volume.
To eliminate the possibility that a substance in the CALB formulation was contributing to the effect obtained, inactivated CALB was also used. A control was prepared by inactivating CALB by boiling for 3 hours. Upon completion of boiling, the volume was adjusted to the initial value with DI water, and sample was spun down at 3,000 rpm for 20 min. The liquid layer was forced through the 0.45-μm filter. The enzyme was thereby completely inactivated.

[4] = test system: yeast; assay: Example 2: LSF ethanol fermentation of ground yellow corn with esterases; conditions: esterase 200 U/g DS
Procedure: Example 2 was conducted on dry milled ground yellow corn according to a simultaneous liquefaction-saccharification-fermentation (LSF) protocol. The experiment was carried out using a glucoamylase (Spirizyme Plus, available from Novozymes A/S) in an amount of 0.8 GAU/g DS and a fungal alpha amylase (SP288, available from Novozymes A/S) in an amount of 2.6 AFAU/g DS for fermenting ethanol along with the addition of:
(A) lipase (LIPOLASE, available from Novozymes A/S),
(B) Candida antarctica lipase,
(C) cutinase (JC 492, available from Novozymes A/S)
(D) phospholipase (LECITASE available from Novozymes A/S),
(E) inactivated Candida antarctica lipase (inactivated by boiling for three hours), and
(F) a control (glucoamylase and amylase without esterase addition).
The esterases were added in an amount corresponding to 200 U/g DS. Fermentations were carried out at pH=5.0, 32° C. for several hours. The process was monitored with time and ana20 lyzed for CO2 weight loss, percent ethanol produced and theoretical conversion of the starch.

[5] = test system: Ethanol Red yeast; assay: Example 10: Lipolase 100 T versus purified Lipolase
Procedure: In this example, Lipolase 100 T and purified Lipolase (both available from Novozymes A/S) were compared. The Experimental conditions were as follows: Ethanol Red yeast, 36% DS, 1.5 GAU/g DS Spirizyme Fuel, 0.8 AFAU/g DS SP 288. Yeast was propagated with maltodextrin and protease. Fermentation was carried out in 25-ml fermentors at 32.2° C. without mixing for 72 h. A control was run as described, without the addition of lipase.

O=S(=O)([O-])[O-].O=S(=O)([O-])[O-].O=S(=O)([O-])[O-].[Fe+3].[Fe+3] [Fe2(SO4)3]
Calculated ethanol, % v/v ([1]; 24 h): 11.58 ± 0.13 % v/v
Efficiency, % ([1]; 24 h): 52.79 ± 0.67%
Calculated ethanol, % v/v ([1]; 48 h): 16.87 ± 0.43 % v/v
Efficiency, % ([1]; 48 h): 81.84 ± 2.57%
Calculated ethanol, % v/v ([1]; 72 h): 18.82 ± 0.91 % v/v
Efficiency, % ([1]; 72 h): 91.00 ± 2.45%

[Cl-].[Na+] [NaCl]
HPLC ethanol, % v/v ([2]; 7 h): 1.88 % v/v
HPLC ethanol, % v/v ([2]; 23 h): 7.91 % v/v
HPLC ethanol, % v/v ([2]; 29 h): 8.78 % v/v
HPLC ethanol, % v/v ([2]; 47 h): 10.30 % v/v
HPLC ethanol, % v/v ([2]; 55 h): 10.94 % v/v
HPLC ethanol, % v/v ([2]; 119 h): 14.61 % v/v

B1: Candida antarctica lipase inactive: Candida antarctica lipase inactivated by boiling for three hours (protein, UniProt P41365 26-342, looked up)
Lipase B: LPSGSDPAFSQPKSVLDAGLTCQGASPSSVSKPILLVPGTGTTGPQSFDSNWIPLSTQLGYTPCWISPPPFMLNDTQVNTEYMVNAITALYAGSGNNKLPVLTWSQGGLVAQWGLTFFPSIRSKVDRLMAFAPDYKGTVLAGPLDALAVSAPSVWQQTTGSALTTALRNAGGLTQIVPTTNLYSATDEIVQPQVSNSPLDSSYLFNGKNVQAQAVCGPLFVIDHAGSLTSQFSYVVGRSALRSTTGQARSADYGITDCNPLPANDLTPEQKVAAAALLAPAAAAIVAGPKQNCEPDLMPYARPFAVGKRTCSGIVTP
modifications: heat-inactivated by boiling
effect on ethanol yield and efficiency [3]: no significant difference between ethanol yield of control samples and ethanol yield of samples treated with inactivated CALB
Calculated ethanol, % v/v ([4]; 24 h): 11.43 ± 0.08 % v/v
Efficiency, % ([4]; 24 h): 52.88 ± 0.40%
Calculated ethanol, % v/v ([4]; 48 h): 16.88 ± 0.15 % v/v
Efficiency, % ([4]; 48 h): 83.18 ± 0.89%
Efficiency, % ([4]; 72 h): 90.89 ± 0.25%
HPLC ethanol, % v/v ([4]; 72 h): 19.49 ± 0.04 % v/v
Calculated ethanol, % v/v ([1]; 24 h): 10.59 ± 0.16 % v/v
Efficiency, % ([1]; 24 h): 49.33 ± 0.85%
Calculated ethanol, % v/v ([1]; 48 h): 16.91 ± 0.30 % v/v
Efficiency, % ([1]; 48 h): 84.73 ± 1.77%
Calculated ethanol, % v/v ([1]; 72 h): 18.65 ± 0.40 % v/v
Efficiency, % ([1]; 72 h): 95.49 ± 2.53%

B2: Lipolase (purified): purified Lipolase, available from Novozymes A/S (protein, UniProt O59952 23-291, looked up)
Lipase: EVSQDLFNQFNLFAQYSAAAYCGKNNDAPAGTNITCTGNACPEVEKADATFLYSFEDSGVGDVTGFLALDNTNKLIVLSFRGSRSIENWIGNLNFDLKEINDICSGCRGHDGFTSSWRSVADTLRQKVEDAVREHPDYRVVFTGHSLGGALATVAGADLRGNGYDIDVFSYGAPRVGNRAFAEFLTVQTGGTLYRITHTNDIVPRLPPREFGYSHSSPEYWIKSGTLVPVTRNDIVKIEGIDATGGNNQPNIPDIPAHLWYFGLIGTCL
Change, % v/v vs. control (efficiency) ([5]; 1 LU/g DS): +1.00 % v/v
Change, % v/v vs. control (ethanol) ([5]; 1 LU/g DS): +0.31 % v/v
Efficiency, % ([5]; 1 LU/g DS): 84.00%
Ethanol, % v/v in beer ([5]; 1 LU/g DS): 18.41 % v/v
Change, % v/v vs. control (efficiency) ([5]; 10 LU/g DS): +0.49 % v/v
Change, % v/v vs. control (ethanol) ([5]; 10 LU/g DS): +0.52 % v/v
Efficiency, % ([5]; 10 LU/g DS): 83.49%
Ethanol, % v/v in beer ([5]; 10 LU/g DS): 18.62 % v/v
Change, % v/v vs. control (efficiency) ([5]; 100 LU/g DS): +0.57 % v/v
Change, % v/v vs. control (ethanol) ([5]; 100 LU/g DS): +0.14 % v/v
Efficiency, % ([5]; 100 LU/g DS): 83.57%
Ethanol, % v/v in beer ([5]; 100 LU/g DS): 18.24 % v/v
